Experiment: soluble on expression in E. coli; label from the status in PepcDB or PDB records
For “MRPDDKYHEKQAQVEATKLKQKVEALSPGDRQQIYEKGLELRSQQSKPQDASCLPALKVSDIEPTIPVTELDVVLTAGDIPVQYCAQPTNGMVYFRAFSSLNTLPEELRPYVPLFCSVLTKLGCGLLDYREQAQQIELKTGGMSASPHVLPDDSHMDTYEQGVLFSSLCLDRNLPDMMQLWSEIFNNPCFEEEEHFKVLVKMTAQELANGIPDSGHLYASIRAGRTLTPAGDLQETFSGMDQVRLMKRIAEMTDIKPILRKLPRIKKHLLNGDNMRCSVNATPQQMPQTEKAVEDFLRSIGRSKKERRPVRPHTVEKPVPSSSGGDAHVPHGSQVIRKLVMEPTFKPWQMKTHFLMPFPVNYVGECIRTVPYTDPDHASLKILARLMTAKFLHTEIREKGGAYGGGAKLSHNGIFTLYSYRDPNTIETLQSFGKAVDWAKSGKFTQQDIDEAKLSVFSTVDAPVAPSDKGMDHFLYGLSDEMKQAHREQLFAVSHDKLLAVSDRYLGTGKSTHGLAILGPENPKIAKDPSWIIR”, the “soluble on expression in E. coli” value was “not soluble”. For “MRPIPEGYEAVFETVVTPEMTVRFEELGPVHPVYATYWMVKHMELAGRKIILPFLEEGEEGIGSYVEARHLASALPGMRVRVVARHEKTEGNRVYARVEAYNELGDLIGVGRTEQVILPKAKVEALFRRLKERWEAERSPS”, the “soluble on expression in E. coli” value was “soluble”. For “MRPMTHVPVLYQEALDLLAVRPGGVYVDATLGGAGHARGILERGGRVIGLDQDPEAVARAKGLHLPGLTVVQGNFRHLKRHLAALGVERVDGILADLGVSSFHLDDPSRGFSYQKEGPLDMRMGLEGPTAKEVVNRLPLEALARLLRELGEEPQAYRIARAIVAAREKAPIETTTQLAEIVRKAVGFRRAGHPARKTFQALRIYVNDELNALKEFLEQAAEVLAPGGRLVVIAFHSLEDRVVKRFLRESGLKVLTKKPLVPSEKEAAQNPRARSAKLRAAEKEAP”, the “soluble on expression in E. coli” value was “soluble”. With “MRPMTIDIDELAFALDTPGIDHYLDLYSGKVLLISAEAPDPELDALLENEPERLLLIDPLSTTQSLGLMQDFLREVEEPHAYATLANALQSRKPFKAFKHSLMEYPELLQDWYRYQNERLREWALDWLEDNDIQPAARQSPTSLLPPPGKPFA” the “soluble on expression in E. coli” value was “not soluble”. In the case of “MRPVLLLCCLFLSATAQAEDCSPQTSVGSWCELPLAALHPTQQNVGLLQVEDDQAKLAGKKPKALERYLRKKEIPVVIGPGGRFYLTDRHHLSSALWRLDPKQGVPVKVIGRLPQASDFWEKMQENHWVWLHDARGAEIPPEALPDALAGLGDDPYRALAGYAEDENAFDKDRQSYFIEFHWARYFGERMHWRPISRATLPDDLKQALRLACEPAARELPGYRQDCPHKLAAALEHHHHHH”, the “soluble on expression in E. coli” value is reported as “not soluble”. For “MRPYKRVLIKLSGGALADQTGNSFNSKRLEHIANEILSIVDLGIEVSIVIGGGNIFRGHLAEEWGIDRVEADNIGTLGTIINSLMLRGVLTSKTNKEVRVMTSIPFNAVAEPYIRLRAVHHLDNGYIVIFGGGNGQPFVTTDYPSVQRAIEMNSDAILVAKQGVDGVFTSDPKHNKSAKMYRKLNYNDIVRQNIQVMDQAALLLARDYNLPAHVFNFDEPGVMRRICLGEHVGTLINDDVSMLVREKLEHHHHHH”, the “soluble on expression in E. coli” value was “not soluble”. For “MRQTNNKESTMKPTADILASIIEEVRPLTSKGIVADYIPALAKVPSDKLGIAVFTNQGEVITAGDAQEGFSIQSISKVLSLTLAMGLYQPDELWSRVGKEPSGQAFNSLIQLEMEQGIPRNPFINAGAIVVCDMLQSRLSAPRQRLLEFVRQLSGEPQIAYDKVVAASEMMHSDRNAAIAYLMRSFGNFHNEVIPVLHNYFHACALKMSCVELAKTFSYLANKGVSVVTGETVITPTQSKQTNALLATCGLYDGAGEFAYRVGMPGKSGVGGGIIAVVPGEMTIAVWSPALDQSGNSLAGTRALELLAQRIGRSIFLEHHHHHH”, the “soluble on expression in E. coli” value was “soluble”. In the case of “MRQVDFFTLRLFLSAVEEGQIGRAALRENIAPSAATKRIQELEDVVGLRLLERTPKGVILSPAGEVLVRHIRQIFTNVDELRAELSAFSEGVRGEVSVASARSIIAPYLAHEFGAYIRDYPLVDLIVREVENAAIVQAVAQGDADIGVFAAAPALDLSGVDVMPYRQDRMVVVMSHGHRLAQRQSVTFEDLLSENLIVPAALHMALRTAADRLGREFEPKYGVTSAGVAISLAQEGLGVTIQPECLLDLKVFEHAVGVELAESWANRSIHIATARGRAAGPAANLLLKQLLDRPRALSSVSD”, the “soluble on expression in E. coli” value is reported as “not soluble”. In the case of “MRRDQKMTELNNQIRSLQEEHGKEKLLAAATKILGKKVPTDYVRVLDPLELQASLQQIDAAVQDVLEKGKAREEAYGEKASLIKQKVKLKTAVELKEAEAFMQIQGEGRNQFAYVNDQKVALTNDTLRDAYRLHYSKEERQQLTDVEQELASIDIKIYQTKDAWETAKESADLVKAKAYVQANLLKFLA”, the “soluble on expression in E. coli” value is reported as “not soluble”. In the case of “MRRRENMDVNKAIRTAVDTGKVILGSKRTIKFVKHGEGKLVVLAGNIPKDLEEDVKYYAKLSNIPVYQHKITSLELGAVCGKPFPVAALLVLDEGLSNIMELVEKKEGGE”, the “soluble on expression in E. coli” value is reported as “soluble”. In the case of “MRRVQSNTLDVGIDVHLKNWSTAILSKHSVLRRFLQVDCEGPTLISYIVAKHLAHASRGTISPYRTNGSAYGGFAIYMYLLIKMR”, the “soluble on expression in E. coli” value is reported as “not soluble”. With “MRSDVVARAMRLIADGTVDRDGVSGLAAQLGYTIRQLERLLQAVVGAGPLALARAQRMQTARVLIETTNLPFGDVAFAAGFSSIRQFNDTVRLACDGTPTALRARAAARFESATASAGTVSLRLPVRAPFAFEGVFGHLAATAVPGCEEVRDGAYRRTLRLPWGNGIVSLTPAPDHVRCLLVLDDFRDLMTATARCRRLLDLDADPEAIVEALGADPDLRAVVGKAPGQRIPRTVDEAEFAVRAVLAQQVSTKAASTHAGRLVAAYGRPVHDRHGALTHTFPSIEQLAEIDPGHLAVPKARQRTINALVASLADKSLVLDAGCDWQRARGQLLALPGVGPWTAEVIAMRGLGDPDAFPASDLGLRLAAKKLGLPAQRRALTVHSARWRPWRSYATQHLWTTLEHPVNQWPPQEKIALEHHHHHH” the “soluble on expression in E. coli” value was “not soluble”. In the case of “MRSQPTVSVIVPARNEAGNIAAAVERLPELGAETELIFVEGHSRDQTWETIEQTVAEYQGPLKLLACRQTGKGKADAVRLGFDKASGDILMILDADLTVQPEDLGHFYRAIASGRGEFINGSRLVYPRSRLAMPGLNTLANRTFALIFSFLLGQPLKDTLCGTKVLWKTDYDRVAAGRKYFGDFDPFGDFDLLFGAAKLGLEIVEVPVRYQERSYGSSNIAHVREGLILARMCLYAAGKLKFPLEHHHHHH”, the “soluble on expression in E. coli” value is reported as “not soluble”. For “MRSVKVYEETWPLHTPFVIARGSRSEAHVVVVELEEEDVKGIGECTPYPRYGESDASVMAQIMSIVPQLENGLTREALQKLLPAGAARNAVDSALWDLQARQRQQSLAGLLGVTLAPVFTTAQTVVIGTPEQMAASAAALWEKGATLLKIKLDARLISERMVAIRSAVPEATLIVDANESWRPEGLAARCQLLADLNVAMLEQPLPAQDDAALENFIHPLPICADESCHTRSSLKALTGRYDMINIKLDKTGGLTEALALATEAREQGFGLMLGCMLCTSRAISAALPLMPQVSFADLDGPTWLAVDVEPALRFTTGQLHL”, the “soluble on expression in E. coli” value was “not soluble”. With “MRSYFLIFILILLLEIREVWSWKAPYLRDRPRGLGLLQLPTGISDERSGPFLPGLYIAGNKVNQKPQTVPDVHLPGQPADFTGRSAFNPFTHMVSAVYAEDLSDGWGAGMAVNGVNGHGLNVRKNFDSYADVPLNLNDGMYQPFIAAATVGGEYDLSKMREVSGSLDLPIPGVNELFDLNARILVKTFLLHNSAIEFPLTLSDPNERAPYNFRYAVWAPDRHMAYGHVVPNVNPYVIGKDKIMERLMQNRLNPTMVG” the “soluble on expression in E. coli” value was “not soluble”. With “MRTFDLTAALGDRANQPEISRLLVAQLMTSNNEDTRKLRRAQEREQTQELNELAHRLAGMASLIHAHAVERACHQLEIACGESSVRKLADAVDDLVTALGELQCELHDWMTMTAPQGTAKS” the “soluble on expression in E. coli” value was “not soluble”. In the case of “MRTNAFEAVARYVYPSLRRRLVEILRERGLTQIQIAELLHITQSAVSRYLRMNRGALIEVEKFQDIDEKLKGLADTIVREKPDEYYIHGELVKIAVEMLGKGYVCSFHSKVDPEIDPKLCRICIETFGLEHHHHHH”, the “soluble on expression in E. coli” value is reported as “soluble”. With “MRVDIVPVGDVPAHVKRQASSSLRSVYDCEVVVASEQDVPTAAYDEARSQYRAAEFIDTATRATSGDKTIAITPHDLFYRRRNYVFGLAYLDGRGCVVSTYRLQTSSDGGFSNRSSSDVFDDRVRKEVVHELGHTLGLEHCDNNRCAMNFSPTVREVDRKEENLCGSCQRTVFLEHHHHHH” the “soluble on expression in E. coli” value was “not soluble”. For “MRVIVTEYQPAWVEQFEEEAQALKQILKENCLKVEHIGSTSVPNLAAKPIIDFLVIVEEIEKVDLLQWEFERIGYEYMGEFGLSGRRYLRKGPIKRTHHVHIYQFDNTQEILRHLAFRNYLRENPAIATTYGTLKKQLAQAHPDSIDKYMDGKDAFIKKIEKEALKKYWE”, the “soluble on expression in E. coli” value was “soluble”. In the case of “MRVKHFELLTDEGKTFTHVDLYGKYTILFFFPKAGTSGCTREAVEFSRENFEKAQVVGISRDSVEALKRFKEKNDLKVTLLSDPEGILHEFFNVLENGKTVRSTFLIDRWGFVRKEWRRVKVEGHVQEVKEALDRLIEEDLSLNKHIEWRRARRALKKDRVPREELELLIKAAHLAPSCMNNQPWRFVVVDEEELLKKIHEALPGGNYWMKNAPALIAVHSKKDFDCALPDNRDYFLFDTGLAVGNLLVQATQMGLVAHPVAGYDPVKVKEILKIPEDHVLITLIAVGYLGDESELSEKHRELERSERVRKELSEIVRWNL”, the “soluble on expression in E. coli” value is reported as “soluble”. For “MRVVALVPGGIGDQILFFPTLDDLKRYYPNAQLDVVVEPRSKAAYRVSKSVNDILTFDYKDRNSLADWGNLVGTIRDREYDVVITVGQSWLVGLFLWLTGIPTRIGYQGKGRSFLTKTVPFKPSQYAAAVYHDLLAPIGITTPTPELAVNVPKPDIDWANSEQKRLGVNETGYVLIYGGSSWVSQPQALETIYPAENWQEIIQDFRQKQPDLPVVVIQGPDDEQFVRSLRDYSLDIKVTSPDNVGKLTAMIAGANLMLTTDSAPLHLSVAVQTYTIALFGSTDPVKLLPNSDKLLGIKSSTGRVADILPKAVLEKVWGGLEHHHHHH”, the “soluble on expression in E. coli” value was “not soluble”. With “MRVYGRKILEEALRNNVPIKKVFFQKMKNPGSYFLSLVKEVEKRGIKYSFESEERLKNLSGTKKHQGVVFDIGEYRYSSVEEILEAKTPPLIVLLDQIQDPHNLGAIVRTSVGAGANGIIIPKDKSVKVTETVVKVSAGTVFRARIAVVTNLARTIEELKEKGVWTYASDIDGTPIYEEDFTFPTAFVFGNEGEGIRRLVREKCDRVVTIPMENDIDSLNVSVSVGVVLFEAVRQRRMKGAG” the “soluble on expression in E. coli” value was “soluble”. With “MRWKKINITINNVEMILVAAIIIDVPPVVDLCVKTMIHNINSTNCIRMFNFSKRYGIKKLYNASMSEIINNITAVTSDPEFGKLSKDELTTILSHENVNVNHEDVTL” the “soluble on expression in E. coli” value was “not soluble”. In the case of “MRWRADFLSAWAEALLRKAGADEPSAKAVAWALVEADLRGVGSHGLLRLPVYVRRLEAGLVNPSPTLPLEERGPVALLDGEHGFGPRVALKAVEAAQSLARRHGLGAVGVRRSTHFGMAGLYAEKLAREGFVAWVTTNAEPDVVPFGGREKALGTNPLAFAAPAPQGILVADLATSESAMGKVFLAREKGERIPPSWGVDREGSPTDDPHRVYALRPLGGPKGYALALLVEVLSGVLTGAGVAHGIGRMYDEWDRPQDVGHFLLALDPGRFVGKEAFLERMGALWQALKATPPAPGHEEVFLPGELEARRRERALAEGMALPERVVAELKALGERYGVPWRDDA”, the “soluble on expression in E. coli” value is reported as “soluble”. For “MRYNEKELQALSRQPAEMAAELGMRGPKKGSVLKRRLVKLVVNFLFYFRTDEAEPVGALLLERCRVVREEPGTFSISFIEDPERKYHFECSSEEQCQEWMEALRRASYEFMRRSLIFYRNEIRKVTGKDPLEQFGISEEARFQLSGLQA”, the “soluble on expression in E. coli” value was “soluble”.
